Experimental data published in paper PMC11290853.
Substitutions are numbered along the chain they refer to. Like-named read-outs stand apart in the source and are kept apart here.

Key:
[1] = target: T1, type 2 cholecystokinin receptor, wild type, expressed in HEK-293 cells (human), P32239
T1 chain: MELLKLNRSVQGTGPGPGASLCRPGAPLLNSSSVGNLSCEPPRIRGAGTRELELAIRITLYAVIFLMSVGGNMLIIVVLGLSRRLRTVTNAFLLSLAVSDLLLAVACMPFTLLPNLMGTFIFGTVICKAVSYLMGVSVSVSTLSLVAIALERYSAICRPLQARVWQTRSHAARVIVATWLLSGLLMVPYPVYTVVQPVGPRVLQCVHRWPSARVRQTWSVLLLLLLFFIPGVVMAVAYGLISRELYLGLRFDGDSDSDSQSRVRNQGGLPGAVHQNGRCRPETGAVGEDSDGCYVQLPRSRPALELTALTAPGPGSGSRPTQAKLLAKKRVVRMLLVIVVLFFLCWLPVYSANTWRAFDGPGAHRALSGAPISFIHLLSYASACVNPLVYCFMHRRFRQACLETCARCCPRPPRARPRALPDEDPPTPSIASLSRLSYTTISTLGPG

[2] = target: T2, type 1 cholecystokinin receptor, wild type, expressed in SRD15 cells (human), P32238
T2 chain: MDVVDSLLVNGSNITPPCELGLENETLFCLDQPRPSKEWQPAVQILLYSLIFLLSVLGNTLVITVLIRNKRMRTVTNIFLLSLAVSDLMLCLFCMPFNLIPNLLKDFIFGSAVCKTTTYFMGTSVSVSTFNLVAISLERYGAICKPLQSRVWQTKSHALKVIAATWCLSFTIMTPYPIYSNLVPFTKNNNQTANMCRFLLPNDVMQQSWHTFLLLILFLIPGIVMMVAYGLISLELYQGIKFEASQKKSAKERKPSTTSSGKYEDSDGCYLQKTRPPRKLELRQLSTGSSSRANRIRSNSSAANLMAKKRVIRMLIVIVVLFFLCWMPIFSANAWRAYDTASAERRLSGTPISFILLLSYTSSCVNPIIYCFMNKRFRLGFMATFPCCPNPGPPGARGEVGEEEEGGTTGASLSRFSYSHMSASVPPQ

[3] = target: T3, CCK2R(sterol 7M) expressed in HEK-293 cells (human), P32239
T3 chain: T1 chain with L143F, A149S, S154G, L225I, F228L, V232I, A235M

[4] = target: T4, type 1 cholecystokinin receptor, wild type, expressed in CHO-K1 cells (human), P32238
T4 chain: T2 chain

[5] = target: T5, CCK1R(sterol 7M) expressed in HEK-293 cells (human), P32238
T5 chain: T2 chain with F130L, S136A, G141S, I216L, L219F, I223V, M226A

[6] = target: T6, CCK1R(Y140A) expressed in HEK-293 cells (human), P32238
T6 chain: T2 chain with Y140A

[7] = target: T7, type 1 cholecystokinin receptor, wild type, expressed in HEK-293 cells (human), P32238
T7 chain: T2 chain

[8] = target: T1, type 2 cholecystokinin receptor, wild …; test: radioligand binding
[9] = target: T2, type 1 cholecystokinin receptor, wild …; test: radioligand binding
[10] = target: T3, CCK2R(sterol 7M) expressed in HEK-293 …; test: radioligand binding
[11] = target: T4, type 1 cholecystokinin receptor, wild …; test: radioligand binding
[12] = target: T5, CCK1R(sterol 7M) expressed in HEK-293 …; test: radioligand binding
[13] = target: T6, CCK1R(Y140A) expressed in HEK-293 cells …; test: radioligand binding
[14] = target: T7, type 1 cholecystokinin receptor, wild …; test: radioligand binding
[15] = target: T1, type 2 cholecystokinin receptor, wild …; test: radioligand binding
[16] = target: T3, CCK2R(sterol 7M) expressed in HEK-293 …; test: radioligand binding
[17] = target: T5, CCK1R(sterol 7M) expressed in HEK-293 …; test: radioligand binding
[18] = target: T6, CCK1R(Y140A) expressed in HEK-293 cells …; test: radioligand binding
[19] = target: T7, type 1 cholecystokinin receptor, wild …; test: radioligand binding

B1: CCK-4, C-terminal tetrapeptide of cholecystokinin (peptide)
chain: WMDF
modifications: not checked
[1]
  iCa^2+, pEC50; HEK-293 cells, + Chol: 9.4
  iCa^2+, pEC50; HEK-293 cells, control: 9.5
[2]
  iCa^2+, pEC50; SRD15-CCK1R cells: 6.8
  iCa^2+, pEC50; SRD15-CCK1R cells + MβCD (cholesterol depleted): 5.7
[3]
  iCa^2+, pEC50; HEK-293 cells, + Chol: 9.2
  iCa^2+, pEC50; HEK-293 cells, control: 9.1
[4]
  iCa^2+, pEC50; CHO-CCK1R cells: 5.3
[5]
  iCa^2+, pEC50; HEK-293 cells, + Chol: 6.8
  iCa^2+, pEC50; HEK-293 cells, control: 6.7
[6]
  iCa^2+, pEC50; HEK-293 cells, + Chol: 5.7
  iCa^2+, pEC50; HEK-293 cells, control: 5.7
[7]
  iCa^2+, pEC50; HEK-293 cells, + Chol: 6.2
  iCa^2+, pEC50; HEK-293 cells, control: 5.5
[8]
  pIC50: 7.7
[9]
  pIC50: 5.5
[10]
  pIC50: 7.2
[11]
  pIC50: 4.5
[12]
  pIC50: < 4
[13]
  pIC50: 4.3
[14]
  pIC50: 4.2
[15]
  pIC50: 7.8
[16]
  pIC50: 7.6
[17]
  pIC50: < 4
[18]
  pIC50: 4.3
[19]
  pIC50: 4
